This note sets out measurements from US20210403595 (published 2021).

The target of experiment [1] is human CD3 epsilon/delta heterodimer, Fc-tagged (human). Nature of the experiment: SPR, 25C antigen-capture. A general note: SPR reads the build-up and loss of mass on a sensor chip optically.
Experiment [2] shares this target. Nature of the experiment: SPR, 25C antibody-capture.
The target of experiment [3] is human CD3 on Jurkat cells (human). As to the kind of experiment: FACS. For orientation: A flow cytometer gives signals particle by particle.
Sequence of human CD3 on Jurkat cells (human) (chain, as listed by the source, chain 1 of 2): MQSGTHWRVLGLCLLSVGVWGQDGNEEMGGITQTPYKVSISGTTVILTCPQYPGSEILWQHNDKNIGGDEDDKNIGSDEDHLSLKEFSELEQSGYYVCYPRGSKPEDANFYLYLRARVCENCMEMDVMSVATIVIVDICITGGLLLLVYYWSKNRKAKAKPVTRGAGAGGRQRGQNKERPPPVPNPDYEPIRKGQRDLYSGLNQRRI
Sequence of human CD3 on Jurkat cells (human) (chain, as listed by the source, chain 2 of 2): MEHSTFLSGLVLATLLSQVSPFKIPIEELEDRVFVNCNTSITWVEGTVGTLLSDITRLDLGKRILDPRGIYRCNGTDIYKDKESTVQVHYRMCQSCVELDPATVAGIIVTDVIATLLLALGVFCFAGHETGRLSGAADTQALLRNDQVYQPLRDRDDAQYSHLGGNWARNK
Experiment [4] concerns the target T1, cynomolgus CD3 on T cells (cynomolgus monkey).
T1 chain: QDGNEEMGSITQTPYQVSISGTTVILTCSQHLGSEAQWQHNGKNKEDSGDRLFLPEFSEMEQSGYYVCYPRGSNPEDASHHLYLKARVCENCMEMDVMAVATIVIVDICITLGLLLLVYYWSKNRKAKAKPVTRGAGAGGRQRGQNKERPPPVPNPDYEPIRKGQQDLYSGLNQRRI
As to the kind of experiment: FACS.

Experiment [5] has as its target human CD3 epsilon/delta heterodimer, Fc-tagged (human). Nature of the experiment: SPR, 37C.
Experiment [6] deals with human CD3 on Jurkat cells (human). Nature of the experiment: FACS. The source holds these as a separate data set.
The target is the same in experiment [7]. As to the kind of experiment: FACS. The source holds these as a separate data set.
The target is the same in experiment [8]. Nature of the experiment: FACS. The source holds these as a separate data set.
Experiment [9] deals with human CD3 epsilon/delta heterodimer, Fc-tagged (human). Nature of the experiment: SPR, 25C antibody-capture. The source holds these as a separate data set.
Experiment [10] has the same target. Nature of the experiment: SPR, 25C antibody-capture. The source holds these as a separate data set.
The target is the same in experiment [11]. Nature of the experiment: SPR, 25C antigen-capture. The source holds these as a separate data set.
The target of experiment [12] is human PSMA, N-terminal 6xHis (soluble) (human). As to the kind of experiment: SPR, 37C.
Sequence of human PSMA, N-terminal 6xHis (soluble) (human) (A4UU12 whole entry): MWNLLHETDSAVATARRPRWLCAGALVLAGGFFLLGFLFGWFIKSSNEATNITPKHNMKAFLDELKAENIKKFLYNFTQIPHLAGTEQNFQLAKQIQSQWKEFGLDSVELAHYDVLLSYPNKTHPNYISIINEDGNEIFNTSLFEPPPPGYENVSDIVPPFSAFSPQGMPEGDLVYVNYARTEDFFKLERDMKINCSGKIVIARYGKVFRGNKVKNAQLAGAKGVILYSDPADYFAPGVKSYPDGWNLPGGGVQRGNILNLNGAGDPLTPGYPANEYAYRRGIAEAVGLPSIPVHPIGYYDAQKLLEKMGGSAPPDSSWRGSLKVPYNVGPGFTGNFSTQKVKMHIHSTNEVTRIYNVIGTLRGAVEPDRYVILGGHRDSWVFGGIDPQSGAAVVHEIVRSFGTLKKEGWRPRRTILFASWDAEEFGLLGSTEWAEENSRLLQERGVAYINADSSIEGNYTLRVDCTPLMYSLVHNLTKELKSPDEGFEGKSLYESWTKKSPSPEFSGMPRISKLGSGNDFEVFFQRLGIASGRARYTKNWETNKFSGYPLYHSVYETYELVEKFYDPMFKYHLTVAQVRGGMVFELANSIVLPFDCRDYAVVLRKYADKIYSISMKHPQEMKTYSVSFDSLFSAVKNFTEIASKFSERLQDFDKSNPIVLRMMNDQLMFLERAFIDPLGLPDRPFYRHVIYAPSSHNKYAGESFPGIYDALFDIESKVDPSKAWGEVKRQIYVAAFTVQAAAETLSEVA
Experiment [13] deals with human CD3 epsilon/delta heterodimer, Fc-tagged (human). Nature of the experiment: SPR, 25C antibody-capture. This is another data set of the same source.

Read-outs that look alike come from different tables or passages of the source.

The Kd is the equilibrium constant for the complex coming apart. Higher therefore signals weaker binding. In general, EC50 refers to the concentration needed to bring the measured effect to its halfway point.

Sequence of human CD3 epsilon/delta heterodimer, Fc-tagged (human) (chain, as listed by the source mutant, chain 1 of 2): as the sequence (chain, as listed by the source, chain 1 of 2) above
Sequence of human CD3 epsilon/delta heterodimer, Fc-tagged (human) (chain, as listed by the source mutant, chain 2 of 2): as the sequence (chain, as listed by the source, chain 2 of 2) above

B1: H2M2776N (antibody)
chain 1: QVQLVESGGGVVQPGRSLRLSCAASGFTFRSFGMHWVRQAPGRGLEWVAMIYFDGKNKYYADSVRGRFTISRDNSKNTLYLEMSSLRAEDTAVYFCARGPGYNWLDPWGQGTLVTVSS
chain 2: EIVMTQSPATLSVSPGERVILSCRASQSISRNLAWYQXKPGQAPRLLIYGATTRATGVPARFSGSGSGTEFTLTISSLQSEDFAVFYCQQYNNRPLTFGGGTEVEIK
modifications: not fully specified; listing feature
On to B1, for which, in experiment [1], the Kd was 0.14 nM.

B2: H1xH7221G3 (antibody, V domains shown)
VH: EVQLVESGGGLVQPGRSLRLSCAASGFTFDDYSMHWVRQAPGKGLEWVSGISWNSGSIGYADSVKGRFTISRDNAKNSLYLQMNSLRAEDTALYYCAKDGSGYGYFYYYGMDVWGQGTTVTVSS
VL: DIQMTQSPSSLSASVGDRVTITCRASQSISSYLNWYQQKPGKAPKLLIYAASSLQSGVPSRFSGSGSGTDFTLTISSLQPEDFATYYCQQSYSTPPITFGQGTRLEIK
Take B2: the binding result in experiment [2] is “no binding”.

B3: BSPSMA/CD3-200 CD3 arm (antibody, V domains shown)
VH: EVQLVESGGGLVQPGRSLRLSCAASGFTFDDYAMHWVRQAPGKGLEWVSGISWNSGSIGYADSVKGRFTISRDNAKNSLYLQMNSLRAEDTALYYCAKDGSGYGYFYYYGMDVWGQGTTVTVSS
VL: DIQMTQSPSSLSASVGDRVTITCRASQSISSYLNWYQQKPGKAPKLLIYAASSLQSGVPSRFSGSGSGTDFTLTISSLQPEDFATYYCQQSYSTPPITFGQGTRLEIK
Take B3: the binding result in experiment [3], in experiment [4] and in [5] was “no binding” throughout.

B4: H1H7221P (antibody, V domains shown)
VH: EVQLVESGGGLVQPGRSLRLSCVASGFTFDDYSMHWVRQAPGKGLEWVSGISWNSGSKDYADSVKGRFTISRDNAKNSLYLQMNSLRAEDTALYYCAKYGSGYGKFYHYGLDVWGQGTTVTVSS
VL: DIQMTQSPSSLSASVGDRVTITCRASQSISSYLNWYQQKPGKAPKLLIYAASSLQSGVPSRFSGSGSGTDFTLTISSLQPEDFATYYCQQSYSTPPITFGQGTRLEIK
In [6], B4 gave an EC50 of 1.4 nM.

B5: H1xH7221G5 (antibody, V domains shown)
VH: EVQLVESGGGLVQPGRSLRLSCAASGFTFDDYSMHWVRQAPGKGLEWVSGISWNSGSIGYADSVKGRFTISRDNAKNSLYLQMNSLRAEDTALYYCAKDGSGYGKFYYYGMDVWGQGTTVTVSS
VL: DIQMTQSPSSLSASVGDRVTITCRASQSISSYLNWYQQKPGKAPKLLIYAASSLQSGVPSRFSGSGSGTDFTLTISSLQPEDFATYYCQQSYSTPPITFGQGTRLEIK
Turning to B5, the binding result in experiment [2] was “no binding”.

B6: BSPSMA/CD3-300 CD3 arm (antibody, V domains shown)
VH: EVQLVESGGGLVQPGRSLRLSCAASGFTFDDYSMHWVRQAPGKGLEWVSGISWNSGSIGYADSVKGRFTISRDNAKNSLYLQMNSLRAEDTALYYCAKDGSGYGYFYYYGMDVWGQGTTVTVSS
VL: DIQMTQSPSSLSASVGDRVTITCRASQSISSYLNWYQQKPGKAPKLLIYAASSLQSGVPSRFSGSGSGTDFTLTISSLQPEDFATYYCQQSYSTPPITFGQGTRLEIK
Regarding B6, the binding result in experiment [3], in experiment [4] and in experiment [5] was “no binding” each time.

B7: BSPSMA/CD3-400 CD3 arm (antibody, V domains shown)
VH: EVQLVESGGGLVQPGRSLRLSCAASGFTFDDYAMHWVRQAPGKGLEWVSGISWNSGSIGYADSVKGRFTISRDNAKNSLYLQMNSLRAEDTALYYCAKDGSGYGKFYYYGMDVWGQGTTVTVSS
VL: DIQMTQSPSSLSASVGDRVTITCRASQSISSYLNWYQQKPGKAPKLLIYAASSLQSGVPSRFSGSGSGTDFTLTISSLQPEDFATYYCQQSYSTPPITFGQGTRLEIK
On to B7, for which the binding result in experiment [3], in [4] and in experiment [5] was “no binding” each time.

B8: H1H5785B (antibody, V domains shown)
VH: QVQLVESGGGVVQPGRSLRLSCAASGLTFSTYVMHWVRQAPGKGLAWVAVIANDGSNKYYADSVKGRFTISRDNSKNTLYLQMNSLRPEDTAVYFCAKEGGTSGSYYYYGMDVWGQGTTVTVSS
VL: DIQMTQSPDSLAVSLGERATINCKSSQSLLFNSINKNYLAWYQQKPGQPPKLLLYWASTRESGIPDRFSGSGSGTDFTLTITSLQAEDVALYYCQQYYSIPWTFGQGTKVEIKR
On to B8, for which the binding result in experiment [7] is reported as “no binding”.

B9: H2M2705N (antibody, V domains shown)
VH: QVQLVESGGGVVQPGRSLRLACVASGFTFRSYGMHWVRQAPGKGLQWVAMIYYDGKNKYYADSVRGRFTISRDNSKNTLYLQMNNLRVEDTAMYFCARGPGYNWLDPWGQGTLVTVSS
VL: EIVMTQSPATLSVSPGERATLSCRASQRISSNLAWYQQKPGQAPRLLIYGASTRATGSPARFSGSGSGTDFTLTISSLQSEDVAVYYCQQHHNWPLTFGGGTKVEIK
B9 registered an EC50 in experiment [8] of 0.296 nM. Further, the Kd in experiment [1] worked out at 0.14 nM; in experiment [9], 13.7 nM.

B10: H1H7194P (antibody, V domains shown)
VH: EVQLVESGGGLVQPGRSLRLSCAASGFTFGDYTMHWVRQAPGKGLEWVSDISWNSGSKDYADSVKGRFTISRDNAKNSLYLQMNSLRTEDTAFYYCAKDSRGYGLYYHLGLDVWGQGTTVTVSS
VL: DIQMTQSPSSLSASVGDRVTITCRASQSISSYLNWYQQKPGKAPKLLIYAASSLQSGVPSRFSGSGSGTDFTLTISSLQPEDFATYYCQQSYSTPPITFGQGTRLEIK
B10 had an EC50 in experiment [6] of 1.5 nM. The molecule further registered a Kd in experiment [10] of 13 nM.

B11: H2M3547N (antibody, V domains shown)
VH: EAQLVESGGGLVQPGRSLRLSCTTSGFTFDDYTMHWVRQAPGKGLEWISDISWNGGTKGYADSVKGRFTISRDNAKNSLYLQMDSLRGEDTALYYCVKDKSGYGHFYFGLDVWGQGTTVTVSS
VL: DIQMTQSPSSLTASVGDRVTFTCRASQSISRHLSWYQQKPGKAPKLLIYAASSLESGVPSRFSGSGSGTDFTLTISSLHPEDFATYYCQQSYSNPPITFGQGTRLEIK
In the case of B11, the affinity in experiment [1], expressed as Kd, was 0.0215 nM.

B12: H1H7250P (antibody, V domains shown)
VH: QVQLVESGGGLVQPGRSLRLSCAASGFTFDDYTMHWVRQGPGKGLEWVSDIGWNSNTKGYADSVKGRFTISRDNAKNSLYLQMNSLRPEDTALYFCVKDKSGYGKFFIGLDVWGQGTMVTVSS
VL: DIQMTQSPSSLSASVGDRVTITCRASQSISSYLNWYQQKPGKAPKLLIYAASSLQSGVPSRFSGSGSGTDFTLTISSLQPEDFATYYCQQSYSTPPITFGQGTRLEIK
As to B12, the Kd in [11] came out at 0.82 nM.

B13: H1H7258P (antibody, V domains shown)
VH: QVQLVESGGGLVQPGRSLRLSCAASGFTFDDYTMHWVRQGPGKGLEWVSDIGWNSNTIGYADSVKGRFTISRDNARNSLYLQMNSLRPEDTALYYCVKDKSGYGKFQYGLDVWGQGTTVTVSS
VL: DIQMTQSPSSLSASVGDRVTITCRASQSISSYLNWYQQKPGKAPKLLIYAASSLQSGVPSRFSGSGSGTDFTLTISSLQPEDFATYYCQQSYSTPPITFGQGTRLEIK
Take B13: the Kd in experiment [10] was 24 nM.

B14: H1H7241P (antibody, V domains shown)
VH: EVQLVESGGGLVQPGRSLRLSCAASGFTFADYTMHWVRQGPGKGLEWVSDIGWNSNTIGYADSVKGRFAISRDNAKNSLYLQMNSLRPEDTALYYCVKDKSGYGKFQYGLDVWGQGTTVTVSS
VL: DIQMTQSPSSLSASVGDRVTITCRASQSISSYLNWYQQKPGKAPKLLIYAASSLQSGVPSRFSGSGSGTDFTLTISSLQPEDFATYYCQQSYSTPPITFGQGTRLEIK
B14 registered a Kd in [10] of 22 nM.

B15: H2M3548N (antibody, V domains shown)
VH: EVQLVESGGGLVQPGRSLRLSCAASGFKFADYAMHWVRQAPGKGLEWVSEISWNSGSIGYVDSVKGRFTISRDNAKNSLYLQMNSLRAEDTALYYCVKDKSGYGHYYIGMDVWGQGTTVIVSS
VL: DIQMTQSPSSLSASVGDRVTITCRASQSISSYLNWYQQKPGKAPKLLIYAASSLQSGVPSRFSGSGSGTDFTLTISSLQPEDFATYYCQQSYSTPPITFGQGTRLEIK
Turning to B15, in [8], the EC50 came out at 1.1 nM. The Kd in experiment [9] was determined as 130 nM.

B16: H1H5753B (antibody, V domains shown)
VH: QVQLVESGGGLVQPGGSLRLSCAASYFTFSSFAMNWVRQAPGQGLEWVSAISGRVSAISGSGGITYYADSVKGRFIISRDNSKNTLYLQMSGLRAEDTAVYYCAKGPYLTTVTPFDYWGQGTLVTVSS
VL: DIQLTQSPSSVSASVGDRVTITCRASQGISSWLAWYQQKPGKAPKLLIYAVSSLQNGVPSRFSGSGSGTDFTLTISSLQPEDFATYYCQQANSFPFTFGPGTKLEIKR
For the molecule B16, the binding result in [7] was “no binding”.

B17: H1H5756B (antibody, V domains shown)
VH: EVQLVESGGGVVQPGRSLRLSCTASGFPFSRYGMHWVRQAPGKGLEWVTFIWYDGSNKYYADSAKGRFTITRDNSKNTVYLQMDSLRADDTAVYYCVRDQAALYYFDSWGQGTLVTVSS
VL: DIQMTQSPSSVSASVGDRVTITCRASQGISRWLAWYQQKPGKAPKLLISAASSLQSGVPSRFSGSGSGTDFTLTISGLQPEDFATYYCQKANSFPFTFGPGTKLEIKR
As for B17, in experiment [7], the binding result is reported as “no binding”.

B18: H1M11453N (antibody, V domains shown)
VH: EFQVVESGGGLVKPGGSLRLSCVVSGFTFSNYNMNWVRQAPAKGLEWVSSISTGSSDIYYADSVKGRFTISRDNAKNSLYLQMNSLRVEDTAVYYCARDIIGTTRDWGQGTLVTVSS
VL: DIQMTQSPSSLSASVGDSVTITCRASQSINNYLNWYQQKPGKAPKLLIYTASSLLSGVPSRFSGSGSGTDFTLTISGLHPEDFATYFCQQSFSTPPITFGQGTRLDIK
Turning to B18, in experiment [12], the Kd came out at 1.93 nM.

B19: H2M11899N (antibody, V domains shown)
VH: QVQLVESGGGVVQPGRSLRLSCAASGFTFSSYDIHWVRQAPGKGLEWVSVIWYDGSNKYYADSVKGRFTISRDNSKNTLYLQMNSLRAEDTAVYYCARTVAARNYDYYVMDVWGQGTTVTVSS
VL: DIQMTQSPSSLSASVGDSVTITCRASQSINNYLNWYQQKPGKAPKLLIYTASSLLSGVPSRFSGSGSGTDFTLTISGLHPEDFATYFCQQSFSTPPITFGQGTRLDIK
In experiment [12], B19 displayed a Kd of 1.76 nM.

B20: H1H5752P (antibody, V domains shown)
VH: QVQLVESGGGVVQPGRSLRPSCAASGFSFRDYGMHWVRQAPGKGLEWMAHIWYNGKNKYYADSVKGRFTISRDNSKNTLYLQMNSLRPEDTAVYYCARDGVSARGTPFDYWGQGTLVTVSS
VL: ETTLTQSPAFMSAAPGDKVSISCIASQYIDDDVNWYQQKPGETAIFIIQEASTLVPGISPRFSGSGYGTHFTLTINNIDSEDAAFYFCLQHDNFPYTFGQGTKLEIK
In the case of B20, the binding result in experiment [13] is “no binding”.

B21: H1H5782P (antibody, V domains shown)
VH: EVQLVESGGGLVQPGRSLRLSCAASGFTFDDYAMHWVRQAPGKGLEWVSGISWNSGSKDYADSVKGRFTISRDNTRNSLFLQMNSLRTEDTALYYCAKDKSGYGSFYYGMDVWGQGTTVTVSS
VL: not shown
On to B21, for which the binding result in experiment [7] and in experiment [13] was “no binding” in each case.
